These results are taken from patent US20070026475A1.

This experiment concerns the target 4G10 anti-phosphotyrosine monoclonal antibody (Upstate Biotechnology). The experiment can be described thus: fluorescence polarization competition; competitor of the fluorescent pp60c-src phosphopeptide.

Take “unphosphorylated peptide (same sequence as the pp60c-src C-terminal phosphoregulatory peptide) (from UniProt P12931 524-536)”: the total shift in polarization was less than 10 mP.
